Reference: patent US20260266825A1

Target: PRO-C17 monoclonal antibody
Test: competitive ELISA; standard peptide competes with plate-bound biotinylated … for the HRP-labelled mAb

IC50: 2.1 ng/mL
Mean IC25: 0.8 ng/mL
Mean IC75: 5.5 ng/mL
Binder: QGMAPAAGADLDKIGLHSDSQEELWMFVRK [30 amino acid standard peptide (…)]
